Measured values taken from the supplement of paper PMC10126150.
± gives the standard deviation of the averaged measurements.

Each sequence was assayed on ATP (assay: switch fluorescence ratio, 500 uM ATP over buffer (Cy3 cluster intensity, sum of 5 cycles each) (fold (ratio)); higher = stronger signal-on switching upon ATP binding; sequences stand for … in TCGTCGGCAGCGTCAGATGTGTATAAGAGACAGTTTTTTTTTTTTTTTTTTTTTTTTT…TC). Details: aptamer strand: ATP DNA aptamer (quencher-CACCTGGGGGAGTATTGCGGAGGAAGG + anchor), 100 nM annealed; ATP concentration: 500 uM.
How it was run: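 Five buffer/ATP imaging cycles were run on Cy3-labelled switching-strand clusters on a modified Illumina MiSeq flow-cell, with NaOH stripping and re-annealing between cycles. In each cycle, clusters annealed to 100 nM quencher-labelled ATP aptamer were imaged in selection buffer, then after 15 min with 500 uM ATP at 22 °C. Per cluster, the fluorescence ratio is summed target-cycle over summed buffer-cycle Cy3 intensity, averaged per switch-domain sequence. Only clusters within 100-1000 RFU were kept.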
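Further: ATP exposure 15 min at 22 °C before imaging.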

| Sequence | switch fluorescence ratio |
| --- | --- |
| TCGTGGGCGA | 0.993 ± 0.011 |
| CGAAACTTTG | 0.974 ± 0.046 |
| ACTGAATGCT | 0.973 ± 0.049 |
| TGGTGGGATT | 0.995 ± 0.012 |
| CGACGTTAGT | 0.995 ± 0.025 |
| AATTTGTAAG | 1.01 ± 0.023 |
| TTTCCCAATT | 1.16 ± 0.16 |
| TGTGTACCG | 1.01 ± 0.065 |
| ATTGGGAAAG | 1.02 ± 0.041 |
| AGACAGGGGA | 1.02 ± 0.04 |
| AATATGTTCT | 1.02 ± 0.014 |
| TTAAGAATTA | 1.03 ± 0.047 |
| ATCTGGGGTT | 1.04 ± 0.015 |
| CCAAGGGTAT | 0.9873 ± 0.0019 |
| ACGATGGTTT | 0.984 ± 0.04 |
| GTGTAATTTT | 0.993 ± 0.032 |
| TAAATTTGGG | 0.974 ± 0.017 |
| CTTGGTGACG | 1.09 ± 0.031 |
| AAAGCGTGCG | 0.964 ± 0.022 |
| AGGTTGCAGT | 1.01 ± 0.077 |
| TTTTATGCAA | 1.28 ± 0.3 |
| TTAATTTTCT | 1.04 ± 0.033 |
| GGGATGGGGA | 1.02 ± 0.032 |

| Sequence | switch fluorescence ratio |
| --- | --- |
| GAAGGAAAAG | 0.992 ± 0.099 |
| TCAAAAATAT | 0.987 ± 0.025 |
| TTGCCTGTG | 1.03 ± 0.033 |
| TTTACAAGT | 0.982 ± 0.035 |
| GTTGTGGGTG | 1.03 ± 0.018 |
| TCCGAGGGCT | 1.59 ± 0.084 |
| GTTGTCAGGT | 1.001 ± 0.0018 |
| GTGTTAGTTA | 1.01 ± 0.011 |
| AAGATACGTT | 1.03 ± 0.011 |
| TCCGCTTGTA | 1.39 ± 0.11 |
| CCCGGCTGGT | 0.9956 ± 0.0095 |
| TGCGAATTAG | 0.998 ± 0.019 |
| GCTTCCTGCC | 1.4 ± 0.027 |
| TTGTGATTGC | 1.03 ± 0.089 |
| GACCACGGTC | 1.02 ± 0.041 |
| GTGGATTTGG | 1.019 ± 0.0056 |
| TGGAGGACTA | 1.14 ± 0.13 |
| AAAGAATGGT | 0.991 ± 0.054 |
| TGCAGGCCAA | 1.08 ± 0.026 |
| ATTAAGTGTG | 0.99638 ± 0.00091 |
| CGGGGGATTA | 1.02 ± 0.049 |
| TATTGAGCTG | 0.9775 ± 0.0087 |
| GAGGGCTGAG | 0.985 ± 0.02 |

| Sequence | switch fluorescence ratio |
| --- | --- |
| CTTAAATGAA | 1.02 ± 0.036 |
| TGTTTTGCGG | 0.9696 ± 0.0063 |
| GTGAAGATTG | 1.02 ± 0.032 |
| CCGGTTACAG | 1.07 ± 0.0078 |
| CGGCGTAGGG | 1.12 ± 0.15 |
| TAGGCGTAGG | 0.9876 ± 0.0018 |
| CGGGGAAGTT | 0.9847 ± 0.0079 |
| TAATTGGAGG | 0.9805 ± 0.0051 |
| TGGCGTTTTT | 1.01 ± 0.023 |
| AGCGATCGGT | 1.03 ± 0.014 |
| TTTTGCATTA | 1.33 ± 0.5 |
| TAGGCTCGG | 1.014 ± 0.0019 |
| GTTTTATATG | 0.978 ± 0.011 |
| TGGATATAGA | 1.01 ± 0.017 |
| AGGGTGTCCA | 0.973 ± 0.028 |
| TTTGTAGCCG | 1.01 ± 0.061 |
| ACCCTGGTAT | 1.02 ± 0.017 |
| AGAATGGGTG | 1.05 ± 0.036 |
| TTTGGATGCT | 1.05 ± 0.14 |
| AACCGGTGCA | 1.08 ± 0.017 |
| ATACGTCGGC | 0.984 ± 0.046 |
| TTCTTTTAGG | 0.996 ± 0.03 |
| AGGGTTGCTG | 1.05 ± 0.074 |

| Sequence | switch fluorescence ratio |
| --- | --- |
| GGCAACTTCT | 1.02 ± 0.011 |
| GCAGGGGGAG | 1.02 ± 0.0081 |
| GATATTTTCG | 1.01 ± 0.035 |
| ATTGAGTCAC | 0.991 ± 0.016 |
| ACAGGTTTTT | 1.01 ± 0.023 |
| TCGGGTGGGA | 1.05 ± 0.058 |
| CTGAGGCTGG | 0.9933 ± 0.0021 |
| AAGGGGAGTG | 1.02 ± 0.11 |
| GCGTATTCTA | 1 ± 0.033 |
| TTTGTCCCG | 1.01 ± 0.044 |
| GTATCCCCCG | 1.03 ± 0.041 |
| GAGTGAGTCG | 0.981 ± 0.022 |
| ATTGTGCTGT | 0.976 ± 0.043 |
| TGTTGCGCTA | 1.02 ± 0.029 |
| GGTAGGCTGC | 0.986 ± 0.018 |
| AGAGTGGTGT | 1 ± 0.024 |
| GGGGGCAACT | 0.997 ± 0.017 |
| GAAGATTTCT | 0.976 ± 0.03 |
| GAAATATGGC | 1.15 ± 0.062 |
| GGGTGTTCGT | 1.004 ± 0.0028 |
| GATGCTTGTG | 0.978 ± 0.011 |
| TCAGAATTTT | 1.04 ± 0.02 |
| CGGGGTATTG | 0.999 ± 0.039 |

| Sequence | switch fluorescence ratio |
| --- | --- |
| TGAGCCGGGT | 1.02 ± 0.033 |
| TATGTAGCCG | 1.03 ± 0.098 |
| TTAAGAACAC | 1.04 ± 0.037 |
| TATACCTTAA | 1.051 ± 0.0042 |
| AAGGGATCTG | 0.9763 ± 0.0069 |
| AATGAGCGTT | 1.14 ± 0.16 |
| AACAAGTATG | 1 ± 0.044 |
| TTAACCGATA | 1.04 ± 0.031 |
| TTTTTCCGCG | 1.128 ± 0.0084 |
| CGCCTGTTAG | 0.99 ± 0.016 |
| AAAGTCTAGC | 1.01 ± 0.019 |
| TGACATTATA | 1.01 ± 0.032 |
| AGGCGGGGGG | 1.02 ± 0.041 |
| GTGGCTTGGG | 1.02 ± 0.018 |
| ACGTTTTAAG | 1.01 ± 0.032 |
| CGATTAAGAT | 1.02 ± 0.021 |
| CAGGGGTAGG | 1.09 ± 0.044 |
| GTTGGGAGGA | 0.989 ± 0.018 |
| TGTGATTTCG | 0.945 ± 0.048 |
| TGTCGTCTGT | 0.9932 ± 0.0063 |
| CAAGGGGGA | 0.995 ± 0.02 |
| TGGGTACGCA | 1.03 ± 0.027 |
| TCTTCTGGCT | 1.02 ± 0.019 |

| Sequence | switch fluorescence ratio |
| --- | --- |
| ATGCCGGGGT | 1.05 ± 0.013 |
| AAAACGCGGT | 1.2 ± 0.042 |
| ATACTGGGAT | 1.031 ± 0.0015 |
| AGTTGTTGGG | 0.998 ± 0.013 |
| GTCGGCGTTG | 0.9916 ± 0.0027 |
| AAATGTTAAG | 1.01 ± 0.032 |
| TGGGGATATA | 1.029 ± 0.0093 |
| GTTTGGATCG | 1 ± 0.015 |
| GGTATAGGTC | 1.05 ± 0.011 |
| TCGTCTAAGG | 0.995 ± 0.014 |
| AATGCTAAGA | 1.01 ± 0.044 |
| GCCTGGGTTC | 0.985 ± 0.02 |
| GAGGCGCTTA | 0.961 ± 0.011 |
| GGTCAAGGCC | 0.999 ± 0.041 |
| TTGAGGTTCG | 1.05 ± 0.14 |
| TGACCCTTAG | 0.987 ± 0.025 |
| TGATTTGGGA | 0.971 ± 0.015 |
| GGTCCTCTTT | 0.98275 ± 0.00076 |
| TCGGAGTAG | 1.04 ± 0.031 |
| TGAATATAGT | 1.004 ± 0.0042 |
| ACTTCTAAAC | 1.07 ± 0.044 |
| AGGACGGGCA | 1.05 ± 0.053 |
| TTTAATGATT | 1.05 ± 0.021 |

| Sequence | switch fluorescence ratio |
| --- | --- |
| ACGTTGGGGG | 1.01 ± 0.028 |
| CGGCCCAGAA | 1 ± 0.015 |
| GTATTCGGGA | 0.963 ± 0.029 |
| TTTTCGGCGT | 1.01 ± 0.01 |
| GTCGATTAGT | 0.944 ± 0.033 |
| GGGTAATATG | 1.01 ± 0.049 |
| GCACTAGGGG | 1.09 ± 0.015 |
| AGTTTGGTCC | 0.997 ± 0.035 |
| ACGTATCTTG | 1.08 ± 0.038 |
| GAGTACGGGA | 1.09 ± 0.059 |
| ACTGTGTTTT | 0.972 ± 0.015 |
| GATTGGGGGA | 0.984 ± 0.036 |
| GAGTAAGGGT | 0.99 ± 0.024 |
| CAATCATAGT | 0.989 ± 0.028 |
| CTCAGGGGAG | 1.03 ± 0.047 |
| GCCGGAGGGA | 0.989 ± 0.038 |
| GACGATTATA | 1.028 ± 0.0017 |
| ATTGGGGTGC | 0.992 ± 0.013 |
| GACGGTAAAA | 1.04 ± 0.015 |
